In patent publication US20240327518A1 (BETTA PHARMACEUTICALS, published 2024):

Tests used:
human PD-L1 on cells [1] = molecular target: T1, human PD-L1 on cells (human, UniProt Q9NZQ7 19-290); assay: cell-based or functional assay
human PD-L1 on cells [2] = molecular target: T1, human PD-L1 on cells; assay: flow cytometry on MC38-hPD-L1 cells overexpressing human PD-L1
Procedure: The binding activity of the humanized antibodies to PD-L1 was measured by flow cytometry. An MC38-hPD-L1 cell line that overexpresses human PD-L1 (manufacturer: Kyinno Biotechnology (Beijing) Co., Ltd.) was thawed, and the cells were added to a 96-well plate at 1×10⁵ cells/well. Different concentrations of the antibodies to be tested (the initial concentration was 100 nM, and 5-fold gradient dilution was performed) were added, and the plate was incubated at 4° C. for 30 minutes. A fluorescently labeled goat anti-human IgG secondary antibody (manufacturer: abcam, catalog No. 98596) was then added to detect antibodies bound to the cell surfaces. Antibody-antigen binding dose response curves were generated using geometric values, and four-parameter raw data were plotted using the Graphpad Prism V6.0 software.

[3] = molecular target: T2, Cynomolgus/Rhesus macaque PD-L1-hFc protein (ACRO Biosystems) (Cynomolgus/Rhesus macaque, UniProt G7PSE7 19-238); assay: ELISA, plate coated with Cynomolgus/Rhesus macaque PD-L1-hFc
T2 construct: Bought protein; also called Cyno PD-L1; cynomolgus monkey PD-L1
Procedure: (§1) A 96-well plate was coated with 1 μg/mL Cynomolgus/Rhesus macaque PD-L1-hFc protein (manufacturer: ACRO Biosystems) and incubated at 4° C. overnight. The plate was washed with wash buffer and then blocked with a PBS solution containing 2% BSA for 60 minutes. After a wash with wash buffer, different concentrations of the antibodies to be tested (the initial concentration was 100 nM, and 4-fold gradient dilution was performed) were added, and the plate was incubated at 37° C. for 120 minutes. The plate was washed with wash buffer, and an HRP-labeled goat anti-human secondary antibody (diluted at 1:10,000, manufacturer: Jackson) was then added. The plate was incubated at 37° C. for 60 minutes. The plate was washed with wash buffer, and TMB substrate solution was added at 100 μL/well. After 10-15 minutes of reaction at room temperature, 100 μL of 2 M hydrochloric acid stop solution was added to stop the reaction.

human PD-L1 on cells [4] = molecular target: T1, human PD-L1 on cells; assay: competitive flow cytometry on 293T-PD-L1 cells, blocking of human-CD80-mFc binding
Procedure: The blocking of PD-L1 binding to CD-80 by the antibodies was measured using a competitive flow cytometry method. 293T-PD-L1 cells were added to a 96-well plate at 1×10⁵ cells/well. Antibody dilutions with different concentrations (the initial working concentration was 200 nM, and 4-fold dilution was performed) were added to the cells, and the plate was incubated at 4° C. for 30 minutes. After the incubation, the plate was washed with PBS containing 2% FBS and centrifuged at 1200 rpm for 4 minutes, and the supernatants were discarded. Then human-CD80-mFc (2 μg/mL, manufacturer: ACRO) was added at 100 μL/well, and the plate was incubated in the dark at 4° C. for 30 minutes. After the incubation, the plate was washed with PBS containing 2% FBS. A fluorescently labeled goat anti-mouse IgG secondary antibody diluted at 1:200 was added at 100 μL/well, and the plate was incubated in the dark at 4° C. for 30 minutes. After the incubation, the plate was washed with PBS containing 2% FBS and tested on a flow cytometer. The mean fluorescence values were measured.

[5] = molecular target: T3, mouse PD-L1-hFc protein (ACRO Biosystems) (mouse, UniProt Q9EP73 19-238); assay: ELISA, plate coated with mouse PD-L1-hFc
T3 construct: Bought protein; not shown: human Fc (hFc)
Procedure: as §1, with “mouse” for “Cynomolgus/Rhesus macaque”, “and” for “and then”, “1:10,000)” for “1:10,000, manufacturer: Jackson)”, “reaction, and OD450 values were measured with a microplate reader.” for “reaction.”

PD-L1-Biotin = PD-L1-Biotin (UniProt Q9NZQ7 19-238, limits assumed, biotin label (site not stated)); assay: competitive flow cytometry: antibody premixed with PD-L1-Biotin, blocking of binding to 293T-hPD1 cells
Procedure: The blocking of PD-L1 binding to its ligand PD-1 by the humanized antibodies was measured using a method based on competitive flow cytometry. 293T-hPD1 cells were added to a 96-well plate at 1×10⁵ cells/well. Different concentrations of the antibodies to be tested (the initial working concentration was 200 nM, and 4-fold dilution was performed) were mixed with a PD-L1-Biotin dilution (2 μg/mL, 50 μL/well), and the mixtures were incubated at room temperature for 30 minutes. Then the mixtures were added to the cells at 100 μL/well and well mixed. The plate was incubated at 4° C. for 60 minutes, and the blocking activity of the antibodies was measured using a PE fluorescently labeled streptavidin flow cytometry antibody. The mean fluorescence values were measured. Then antibody-antigen blocking reaction curves were generated using geometric values, and four-parameter plots were generated using the Graphpad Prism V6.0 software.

T3 sequence (Q9EP73 19-238 limits assumed): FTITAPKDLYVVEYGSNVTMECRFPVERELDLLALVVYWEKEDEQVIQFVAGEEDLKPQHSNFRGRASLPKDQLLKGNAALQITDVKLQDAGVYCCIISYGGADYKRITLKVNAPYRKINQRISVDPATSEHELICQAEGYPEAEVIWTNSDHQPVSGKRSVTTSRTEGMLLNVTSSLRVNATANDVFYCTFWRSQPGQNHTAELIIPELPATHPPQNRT
T1 sequence (Q9NZQ7 19-290): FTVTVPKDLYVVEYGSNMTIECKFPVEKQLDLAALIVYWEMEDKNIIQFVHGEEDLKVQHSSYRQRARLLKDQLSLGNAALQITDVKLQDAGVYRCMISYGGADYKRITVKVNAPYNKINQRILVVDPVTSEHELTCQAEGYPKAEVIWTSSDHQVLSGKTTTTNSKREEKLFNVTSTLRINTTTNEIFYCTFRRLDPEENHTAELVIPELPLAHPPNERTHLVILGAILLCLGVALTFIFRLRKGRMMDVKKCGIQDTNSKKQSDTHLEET
T2 sequence (G7PSE7 entry or part of it limits assumed, form in doubt): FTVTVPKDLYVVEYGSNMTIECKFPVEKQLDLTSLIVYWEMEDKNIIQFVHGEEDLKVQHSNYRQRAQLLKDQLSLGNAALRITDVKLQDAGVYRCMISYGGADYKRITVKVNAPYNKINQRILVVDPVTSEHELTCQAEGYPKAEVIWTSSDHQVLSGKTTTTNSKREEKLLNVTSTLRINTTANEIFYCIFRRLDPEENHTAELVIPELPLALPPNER
Sequence of PD-L1-Biotin (Q9NZQ7 19-238 limits assumed): as the sequence (G7PSE7 entry or part of it limits assumed, form in doubt) above, with T33A, S34A, N62S, Q68R, R82Q, L173F, A185T, I192T, L215H counted along it

| Binder | IC50 (nM), NFAT-luciferase reporter gene assay (human PD-L1 on cells [1]) [nM] | EC50 (human PD-L1 on cells [2]) [nM] | EC50 [3] [nM] | IC50 (human PD-L1 on cells [4]) [nM] | binding result [5] | IC50 (PD-L1-Biotin) [nM] |
| --- | --- | --- | --- | --- | --- | --- |
| antibody 2 (VHH) VHH: QVQLVESGGGLVQPGGSLSLSCVASGFTFSSYAMRWVRQAPGKEPEWVAGINTGSEIVVYANSVRGRFAISRDNARDTLFLQMNSLKPEDTAVYYCATGLVSAEHDGIWGQGTQVTVSS | 0.2 | 0.14 | 0.136 | 1.5 | no binding (tested: initial concentration 100 nM) | 2.7 |
| antibody 1 (VHH, expressed in mammalian cells) VHH: QVQLVESGGGLVQAGGSLRLSCAASGRSFSSSGMGWFRQAPGKDREFVATINSSGGDTYYRDSVEGRFTTSRDNAKNTMSLQMNDLKPEDTAVYYCAAKEGGGPSSIPAIYDYWGQGTQVTVSS | 0.378 | 0.041 | 0.133 | 2.6 | no binding (tested: initial concentration 100 nM) | 4.2 |
| antibody 5 (VHH) VHH: QVQLVESGGGLVQAGGSLRLSCAASGRSFSSSGMGWFRQAPGKDREFVATINSSGGDTYYADSVEGRFTTSRDNAKNTMSLQMNDLKPEDTAVYYCAAKEGGGPSSIPAIFDYWGQGTQVTVSS | 0.305 |  | 0.034 |  | no binding (tested: initial concentration 100 nM) |  |
| antibody 3 (VHH) VHH: EVQLVESGGGSVQTGGSLRLSCVASGRDFLTYGMGWFRQAPGKEREFVASINWSGSMTYYADSVKGRFTISRDNAKNTVYLQMNSLKPGDTAVYICAARRGAVTYASSNEYEHWGQGTQVTVSS | 0.211 | 0.025 | 0.04 | 5.2 | no binding (tested: initial concentration 100 nM) | 1.1 |
| antibody 3hu (VHH, Humanized nanobody; also called humanized antibody 3) VHH: EVQLVESGGGLVQPGGSLRLSCAASGRDFLTYGMGWFRQAPGKGREFVASINWSGSMTYYADSVKGRFTISRDNAKNTVYLQMNSLKAEDTAVYICAARRGAVTYASSNEYEHWGQGTLVTVSS |  | 0.025 |  |  |  |  |
| antibody 4 (VHH) VHH: EVQLVESGGGLVQAGDSLRLSCTASGRDFLTYGMGWFRQAPGKEREFVASINWSGSMTYYADSVKGRFTISRDNAKNTVYLQMNSLKPGDTAVYICAARRGAVTYASSNEYEHWGQGTQVTVSS | 0.26 | 0.16 | 0.034 | 1.5 | no binding (tested: initial concentration 100 nM) | 2.8 |
